Source: patent US20250333467A1 (TECTONIC OPERATING, published 2025)
Residue numbers refer to the chain shown, from its start. “And” between values parts separate entries of the source, which are not always exact repeats. Identical values can stand only once.

B1: Wild-type human relaxin-2 (ligand)
chain 1: DSWMEEVIKLCGRELVRAQIAICGMSTWS
chain 2: QLYSALANKCCHVGCTKRSLARFC
B2: SEQ ID NO: 313 (Fc fusion)
chain: DKTHTCPPCPAPEAAGGPSVFLFPPKPKDTLMISRTPEVTCVVVDVSHEDPEVKFNWYVDGVEVHNAKTKPREEQYNSTYRVVSVLTVLHQDWLNGKEYKCKVSNKALAAPIEKTISKAKGQPREPQVYTLPPSRDELTKNQVSLTCLVKGFYPSDIAVEWESNGQPENNYKTTPPVLDSDGSFFLYSKLTVDKSRWQQGNVFSCSVLHEALHSHYTQKSLSLSPGKGGSDSWQEEVIKLCGRELVRAQIAICGKSTGGGEGGGEGGGEGRQLYSALANKCCHVGCTKRSLAQFC
B3: SEQ ID NO: 317 (Fc fusion)
chain: DKTHTCPPCPAPEAAGGPSVFLFPPKPKDTLMISRTPEVTCVVVDVSHEDPEVKFNWYVDGVEVHNAKTKPREEQYNSTYRVVSVLTVLHQDWLNGKEYKCKVSNKALAAPIEKTISKAKGQPREPQVYTLPPSRDELTKNQVSLTCLVKGFYPSDIAVEWESNGQPENNYKTTPPVLDSDGSFFLYSKLTVDKSRWQQGNVFSCSVLHEALHSHYTQKSLSLSPGGGSDSWQEEVIKLCGRELVRAQIAICGKSTGGGEGGGEGGGEGRQLYSALANKCCHVGCTKRSLAQFC
B4: SEQ ID NO: 496 (Fc fusion)
chain: DKTHTCPPCPAPEAAGGPSVFLFPPKPKDTLMISRTPEVTCVVVDVSHEDPEVKFNWYVDGVEVHNAKTKPREEQYNSTYRVVSVLTVLHQDWLNGKEYKCKVSNKALAAPIEKTISKAKGQPREPQVYTLPPSRDELTKNQVSLTCLVKGFYPSDIAVEWESNGQPENNYKTTPPVLDSDGSFFLYSKLTVDKSRWQQGNVFSCSVLHEALHSHYTQKSLSLSPGKGGSDSWKEEVIKLCGRELVRAQIAICGKSTASDAAGANANAGARQLYSALANKCCHVGCTKRSLARFC
B5: SEQ ID NO: 93 (Fc fusion)
chain: B4 chain with K227E, K234Q, N265D, N267D, R293Q
B6: SEQ ID NO: 95 (Fc fusion)
chain: B4 chain with K227E, K234Q, N265Q, N267D, R293Q
B7: SEQ ID NO: 118 (Fc fusion)
chain: B4 chain with K227E, K234Q, K255Q, N265Q, N267Q, R289Q, R293Q
B8: SEQ ID NO: 104 (Fc fusion)
chain: B4 chain with K227E, K234Q, K255Q, N265Q, N267Q, R293Q
B9: SEQ ID NO: 86 (Fc fusion)
chain: B4 chain with K234Q, N265D, N267D, R293Q
B10: SEQ ID NO: 98 (Fc fusion)
chain: B4 chain with K227E, K234Q, K255Q, N265D, R293Q
B11: SEQ ID NO: 91 (Fc fusion)
chain: B4 chain with K227E, K234Q, N265D, R293Q
B12: SEQ ID NO: 111 (Fc fusion)
chain: B4 chain with K227E, K234Q, N265Q, N267Q, R289Q, R293Q

Assays:
Assay in all cases: cell-based or functional assay
human RXFP1 [1] = molecular target: T1, human RXFP1 (human, UniProt Q9HBX9 1-757)
T1 sequence (looked up): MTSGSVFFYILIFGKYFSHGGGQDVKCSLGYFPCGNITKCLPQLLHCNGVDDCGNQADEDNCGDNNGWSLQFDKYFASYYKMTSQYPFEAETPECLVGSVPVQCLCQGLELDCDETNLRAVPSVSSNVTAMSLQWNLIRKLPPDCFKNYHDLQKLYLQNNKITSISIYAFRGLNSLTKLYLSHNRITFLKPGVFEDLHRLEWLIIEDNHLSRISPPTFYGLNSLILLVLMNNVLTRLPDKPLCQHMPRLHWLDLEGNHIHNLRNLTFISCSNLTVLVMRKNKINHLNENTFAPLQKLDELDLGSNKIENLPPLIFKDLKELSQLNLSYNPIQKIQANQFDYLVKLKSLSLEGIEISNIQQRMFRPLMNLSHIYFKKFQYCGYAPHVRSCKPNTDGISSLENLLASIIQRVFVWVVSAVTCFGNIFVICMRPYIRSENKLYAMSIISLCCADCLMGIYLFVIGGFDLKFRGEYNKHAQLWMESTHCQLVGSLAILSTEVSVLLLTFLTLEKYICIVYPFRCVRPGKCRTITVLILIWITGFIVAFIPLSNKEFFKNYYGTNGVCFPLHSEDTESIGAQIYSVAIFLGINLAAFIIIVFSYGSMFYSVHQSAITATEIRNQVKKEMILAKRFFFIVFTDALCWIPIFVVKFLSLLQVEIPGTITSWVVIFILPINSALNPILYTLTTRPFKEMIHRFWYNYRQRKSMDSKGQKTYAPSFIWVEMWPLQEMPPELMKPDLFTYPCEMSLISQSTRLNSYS

human RXFP2 = human RXFP2 (human, UniProt Q8WXD0 1-754)
human RXFP1 [2] = molecular target: T1, human RXFP1; remark: listed apart in the source
human RXFP1 [3] = molecular target: T1, human RXFP1; remark: listed apart in the source
cynomolgus monkey RXFP1 = molecular target: T2, cynomolgus monkey RXFP1 (cynomolgus monkey, UniProt H9ERA2 1-757 (rhesus entry))
T2 sequence: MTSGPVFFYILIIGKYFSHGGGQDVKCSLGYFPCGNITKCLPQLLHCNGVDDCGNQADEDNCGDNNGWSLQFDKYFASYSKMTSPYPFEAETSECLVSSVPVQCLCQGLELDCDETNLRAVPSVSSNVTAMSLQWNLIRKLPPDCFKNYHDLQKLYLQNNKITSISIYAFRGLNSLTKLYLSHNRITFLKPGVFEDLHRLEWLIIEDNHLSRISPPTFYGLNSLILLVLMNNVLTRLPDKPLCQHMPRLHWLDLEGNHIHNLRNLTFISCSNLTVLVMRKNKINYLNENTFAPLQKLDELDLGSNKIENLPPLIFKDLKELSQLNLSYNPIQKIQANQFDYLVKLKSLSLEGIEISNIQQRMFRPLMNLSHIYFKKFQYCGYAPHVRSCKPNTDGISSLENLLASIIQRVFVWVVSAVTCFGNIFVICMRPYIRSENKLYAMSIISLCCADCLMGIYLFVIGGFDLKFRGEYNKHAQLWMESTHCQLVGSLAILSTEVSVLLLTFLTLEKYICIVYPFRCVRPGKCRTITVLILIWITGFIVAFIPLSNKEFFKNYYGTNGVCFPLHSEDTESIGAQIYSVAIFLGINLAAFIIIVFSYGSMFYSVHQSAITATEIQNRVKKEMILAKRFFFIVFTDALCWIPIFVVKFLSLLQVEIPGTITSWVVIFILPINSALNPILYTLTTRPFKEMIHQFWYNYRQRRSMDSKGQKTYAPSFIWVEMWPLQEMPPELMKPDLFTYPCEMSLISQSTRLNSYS

rat RXFP1 [4] = molecular target: T3, rat RXFP1 (rat, UniProt Q6R6I6 1-758)
T3 sequence (looked up): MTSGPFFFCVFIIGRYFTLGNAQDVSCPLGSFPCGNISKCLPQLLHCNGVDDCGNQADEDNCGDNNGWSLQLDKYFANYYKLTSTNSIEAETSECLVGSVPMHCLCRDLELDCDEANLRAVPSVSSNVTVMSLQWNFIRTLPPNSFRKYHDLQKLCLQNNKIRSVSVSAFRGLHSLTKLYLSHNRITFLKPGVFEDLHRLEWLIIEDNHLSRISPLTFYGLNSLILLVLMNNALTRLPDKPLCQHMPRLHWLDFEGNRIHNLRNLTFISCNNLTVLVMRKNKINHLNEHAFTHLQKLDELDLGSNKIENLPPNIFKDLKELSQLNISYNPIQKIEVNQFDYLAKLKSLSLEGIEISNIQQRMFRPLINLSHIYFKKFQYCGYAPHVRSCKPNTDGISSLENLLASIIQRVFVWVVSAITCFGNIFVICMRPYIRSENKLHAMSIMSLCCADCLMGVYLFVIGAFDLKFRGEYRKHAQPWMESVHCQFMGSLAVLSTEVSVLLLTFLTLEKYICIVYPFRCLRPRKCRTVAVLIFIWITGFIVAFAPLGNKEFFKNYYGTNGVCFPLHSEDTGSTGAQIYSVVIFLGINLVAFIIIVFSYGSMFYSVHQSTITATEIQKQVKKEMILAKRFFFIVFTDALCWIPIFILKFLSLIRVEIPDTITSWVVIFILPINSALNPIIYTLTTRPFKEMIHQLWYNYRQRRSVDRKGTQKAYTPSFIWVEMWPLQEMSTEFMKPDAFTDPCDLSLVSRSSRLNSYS

human RXFP1 [5] = molecular target: T1, human RXFP1; remark: listed apart in the source
rat RXFP1 [6] = molecular target: T3, rat RXFP1; remark: listed apart in the source
human RXFP1 [7] = molecular target: T1, human RXFP1; remark: listed apart in the source
rat RXFP1 [8] = molecular target: T3, rat RXFP1; remark: listed apart in the source
human RXFP1 [9] = molecular target: T1, human RXFP1; remark: listed apart in the source

Chain of human RXFP2 (Q8WXD0 whole entry): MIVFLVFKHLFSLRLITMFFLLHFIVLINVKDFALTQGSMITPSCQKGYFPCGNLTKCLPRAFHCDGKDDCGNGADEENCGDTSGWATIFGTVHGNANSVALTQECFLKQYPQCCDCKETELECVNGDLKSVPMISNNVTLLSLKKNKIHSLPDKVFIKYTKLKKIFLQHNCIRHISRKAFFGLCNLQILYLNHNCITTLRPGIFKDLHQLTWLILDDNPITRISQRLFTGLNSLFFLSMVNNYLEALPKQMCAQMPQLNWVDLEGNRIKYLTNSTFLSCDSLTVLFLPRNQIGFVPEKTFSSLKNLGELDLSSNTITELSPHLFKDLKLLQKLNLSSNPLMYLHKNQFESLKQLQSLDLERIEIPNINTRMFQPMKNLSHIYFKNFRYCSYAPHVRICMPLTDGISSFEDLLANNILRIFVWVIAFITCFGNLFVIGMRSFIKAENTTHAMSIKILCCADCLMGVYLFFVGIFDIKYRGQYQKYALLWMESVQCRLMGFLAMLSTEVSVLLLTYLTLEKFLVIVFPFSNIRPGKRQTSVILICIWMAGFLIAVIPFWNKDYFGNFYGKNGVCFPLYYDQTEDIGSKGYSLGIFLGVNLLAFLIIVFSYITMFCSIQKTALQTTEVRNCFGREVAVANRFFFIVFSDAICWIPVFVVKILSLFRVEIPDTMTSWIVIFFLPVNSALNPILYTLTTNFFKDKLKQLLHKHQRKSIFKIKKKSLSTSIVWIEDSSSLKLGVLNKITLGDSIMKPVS

| Binder | Potency (cAMP, transient hRXFP1 in HEK293) (human RXFP1 [1]) [nM] | cAMP response EC50, human RXFP2 stable in CHO-K1 (human RXFP2) | cAMP response EC50, THP-1 (endogenous RXFP1) (human RXFP1 [2]) | cAMP response EC50, human RXFP1 stable in CHO-K1 (human RXFP1 [2]) | EC50, cAMP response in RXFP1 transfected HEK293 cells (human RXFP1 [3]) [nM] | pEC50, cAMP response in RXFP1 transfected HEK293 cells (human RXFP1 [3]) | cAMP response EC50, cynomolgus monkey RXFP1 transient in HEK293 (cynomolgus monkey RXFP1) | cAMP response EC50, rat RXFP1 transient in HEK293 (rat RXFP1 [4]) | cAMP response EC50, human RXFP1 transient in HEK293 (human RXFP1 [5]) | EC50 for cAMP generation, recombinant rat RXFP1 assay (average) (rat RXFP1 [6]) [nM] | EC50 for cAMP generation, recombinant human RXFP1 assay (average) (human RXFP1 [7]) [nM] | Transient HEK293 rRXFP1 cAMP EC50 (rat RXFP1 [8]) [nM] | THP1 (endogenous RXFP1) cAMP EC50 (human RXFP1 [9]) [nM] | Transient HEK293 hRXFP1 cAMP EC50 (human RXFP1 [9]) [nM] |
| --- | --- | --- | --- | --- | --- | --- | --- | --- | --- | --- | --- | --- | --- | --- |
| B1 | 0.1 | 10 nM and 90 ng/mL | 0.07 nM and 0.4 ng/mL | 0.2 nM and 1 ng/mL | 0.042 | 10.4 | 0.04 nM and 0.2 ng/mL | 0.1 nM and 0.6 ng/mL | 0.05 nM and 0.3 ng/mL | 0.1 | 0.04 | 0.122 | 0.2 | 0.039 |
| B2 | 4.2 | – | – | – | – | – | – | – | – | – | – | 15.1 | 49 | 10 |
| B3 | 8 | – | – | – | – | – | – | – | – | – | – | 31.2 | 63 | 38.2 |
| B4 | 0.2 | – | – | – | – | – | – | – | – | 1 | 0.2 | 1.15 | 2 | 0.19 |
| B5 | 11.1 | – | – | – | – | – | – | – | – | – | – | 21.3 | 90 | 19.1 |
| B6 | 6.8 | – | – | – | – | – | – | – | – | – | – | 13.5 | 26 | 10.9 |
| B7 | 10.1 | – | – | – | – | – | – | – | – | – | – | 20.3 | 200 | 25 |
| B8 | 2.8 | – | – | – | – | – | – | – | – | – | – | 6.74 | 11 | 6.17 |
| B9 | 4 | – | – | – | – | – | – | – | – | – | – | 24.5 | 30 | 7.46 |
| B10 | 8.8 | – | – | – | – | – | – | – | – | – | – | 29.1 | 100 | 21.5 |
| B11 | 3.9 | – | – | – | – | – | – | – | – | – | – | 12.4 | 30 | 10.2 |
| B12 | 3.5 | – | – | – | – | – | – | – | – | – | – | 6.74 | 80 | 5.94 |
